This sample holds only a part of the variants without activity.

The test system of one series is biotinyl-Trp-oxazolone. The series can be described thus: self-aminoacylation, catalytic enhancement (BWO) (fold over background); higher = more active; k-Seq, kA / k0A0; sequences stand for … in GGGAAUGGAUCCACAUCUACGAAUUC…UUCACUGCAGACUUGACGAAGCUG
The method in brief:
(§1)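 Mutagenized RNA pools with a 21-nt variable region (0.43 μM) were reacted with each biotinyl-aminoacyl-oxazolone at 2–1250 μM for 90 minutes at room temperature, in 50 μL HEPES/NaCl/KCl/MgCl2/CaCl2 buffer containing 5% acetonitrile at pH 6.9–7.0. RNA captured on streptavidin was quantified by triplicate qPCR and by Illumina sequencing. The fraction reacted for each sequence was fit to a pseudo-first-order model with bootstrapping, and catalytic enhancement is the median kA divided by the uncatalyzed rate, taken as the low-activity peak of a bimodal Gaussian fit.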

The next series concerns biotinyl-Phe-oxazolone. The series can be described thus: self-aminoacylation, catalytic enhancement (BFO) (fold over background); higher = more active; k-Seq, kA / k0A0; sequences stand for … in GGGAAUGGAUCCACAUCUACGAAUUC…UUCACUGCAGACUUGACGAAGCUG
The method in brief: as §1

As to “AAAUUUGCUAAUAGUCGCAAG [Fam3.1 aminoacylation ribozyme variant]”, the self-aminoacylation in the series with biotinyl-Trp-oxazolone is 2.13; in the series on biotinyl-Phe-oxazolone, 4.

Turning to “AAGAUUGAUAAUAGUCGCAAG [Fam3.1 aminoacylation ribozyme variant]”, in the series on biotinyl-Trp-oxazolone, the self-aminoacylation was 2.33.

Regarding “AAGAUUGCUAAUAGUCGUAAG [Fam3.1 aminoacylation ribozyme variant]”, the figures for the self-aminoacylation with biotinyl-Trp-oxazolone and in the series with biotinyl-Phe-oxazolone were 2.41 and 9.9, respectively.

Regarding “AAGAUUGCUUAUAGUCGCAAG [Fam3.1 aminoacylation ribozyme variant]”, the figures for the self-aminoacylation with biotinyl-Trp-oxazolone and in the series on biotinyl-Phe-oxazolone were 2.35 and 2.44, respectively.

As to “AAGUCUACUAAUAGUCGCAAG [Fam3.1 aminoacylation ribozyme variant]”, the self-aminoacylation with biotinyl-Trp-oxazolone is 2.11; with biotinyl-Phe-oxazolone, 3.17.

On to “AAGUGUGCUAAUAGUCGAAAG [Fam3.1 aminoacylation ribozyme variant]”, for which the self-aminoacylation in the series with biotinyl-Trp-oxazolone turned out to be 4.55; with biotinyl-Phe-oxazolone, 11.5.

Regarding “AAGUUUCCUAAUAGUCGCACG [Fam3.1 aminoacylation ribozyme variant]”, the self-aminoacylation came to 2.23 in the series on biotinyl-Trp-oxazolone and 2.96 with biotinyl-Phe-oxazolone.

For the sequence “AAGUUUGCUAAUAGCCGCAAG [Fam3.1 aminoacylation ribozyme variant]”, the self-aminoacylation with biotinyl-Trp-oxazolone was determined as 2.2; in the series on biotinyl-Phe-oxazolone, 6.96.

Consider “AAGUUUGCUAAUGGUCGCAAA [Fam3.1 aminoacylation ribozyme variant]”, for which the self-aminoacylation stood at 2.87 in the series with biotinyl-Trp-oxazolone and 2.48 in the series with biotinyl-Phe-oxazolone.

Take “AAGUUUGCUAGUAGUCGCACG [Fam3.1 aminoacylation ribozyme variant]”: the self-aminoacylation was 2.21 in the series with biotinyl-Trp-oxazolone and 3.09 with biotinyl-Phe-oxazolone.

In the case of “AAGUUUUCUAUUAGUCGCAAG [Fam3.1 aminoacylation ribozyme variant]”, the values for the self-aminoacylation with biotinyl-Trp-oxazolone and in the series on biotinyl-Phe-oxazolone were 2.07 and 2.22, respectively.

For “ACUCACUUCAAGCAAUCGGUC [Fam1B.1 aminoacylation ribozyme variant]”, the values for the self-aminoacylation in the series with biotinyl-Trp-oxazolone and in the series with biotinyl-Phe-oxazolone were 5.36 and 9.3, respectively.

On to “AUACUUCAAACAAUCGGUCUC [Fam1A.1 aminoacylation ribozyme variant]”, for which the values for the self-aminoacylation with biotinyl-Trp-oxazolone and in the series with biotinyl-Phe-oxazolone were 7.89 and 13.5, respectively.

As for “AUGACCCUGGUCAUCGAGUCA [Fam2.1 aminoacylation ribozyme variant]”, the self-aminoacylation in the series with biotinyl-Trp-oxazolone is 2.12.

With “AUUACCAUGGUCAUCGAGGGA [Fam2.1 aminoacylation ribozyme variant]”, the figures for the self-aminoacylation with biotinyl-Trp-oxazolone and in the series on biotinyl-Phe-oxazolone were 2.58 and 2.21, respectively.

In the case of “AUUACCCUGGUCAUCCAGUAA [Fam2.1 aminoacylation ribozyme variant]”, the self-aminoacylation in the series on biotinyl-Trp-oxazolone came to 2.35.

As to “AUUACCCUGGUCAUGGAGUGG [Fam2.1 aminoacylation ribozyme variant]”, in the series on biotinyl-Trp-oxazolone, the self-aminoacylation was found to be 2.54.

As for “AUUACCGUGGUCAUCGAGCGA [Fam2.1 aminoacylation ribozyme variant]”, in the series with biotinyl-Trp-oxazolone, the self-aminoacylation is 2.2.

With “AUUCACCUAGUUCAUCGGGUA [Fam2.2 aminoacylation ribozyme variant]”, the values for the self-aminoacylation with biotinyl-Trp-oxazolone and in the series on biotinyl-Phe-oxazolone were 2.37 and 5.42, respectively.

For the sequence “CAACGUCAAACAAUCGGUCUG [Fam1A.1 aminoacylation ribozyme variant]”, the results for the self-aminoacylation in the series on biotinyl-Trp-oxazolone and in the series with biotinyl-Phe-oxazolone were 2.6 and 3.29, respectively.

In the case of “CAACUUCAAACAAUCGGUCAG [Fam1A.1 aminoacylation ribozyme variant]”, the self-aminoacylation amounted to 11.9 in the series on biotinyl-Trp-oxazolone and 19.5 in the series on biotinyl-Phe-oxazolone.

In the case of “CAACUUCAAACAAUCUGUCUG [Fam1A.1 aminoacylation ribozyme variant]”, the self-aminoacylation in the series on biotinyl-Trp-oxazolone was determined as 2.14; in the series with biotinyl-Phe-oxazolone, 4.35.

In the case of “CAACUUCAAACGAUCGGUCUG [Fam1A.1 aminoacylation ribozyme variant]”, the self-aminoacylation was 2.65 in the series on biotinyl-Trp-oxazolone and 2.25 with biotinyl-Phe-oxazolone.

Turning to “CAAGACUUCAAGCAAUCGGUC [Fam1B.1 aminoacylation ribozyme variant]”, the self-aminoacylation in the series with biotinyl-Trp-oxazolone worked out at 9.73; with biotinyl-Phe-oxazolone, 15.3.

As for “CCACACCUCAAUCAAUCGGUC [Fam1B.1 aminoacylation ribozyme variant]”, the self-aminoacylation worked out at 2.88 in the series with biotinyl-Trp-oxazolone and 3.88 in the series with biotinyl-Phe-oxazolone.

Turning to “CCACACUCCAACCAAUCGGUC [Fam1B.1 aminoacylation ribozyme variant]”, the self-aminoacylation with biotinyl-Trp-oxazolone came out at 2.18; in the series with biotinyl-Phe-oxazolone it was 3.55.

For “CCACACUUCAACCAAUCGGUU [Fam1B.1 aminoacylation ribozyme variant]”, the self-aminoacylation with biotinyl-Trp-oxazolone came to 11.9; with biotinyl-Phe-oxazolone, 12.3.

Consider “CCACACUUCAACCGAUCGGUC [Fam1B.1 aminoacylation ribozyme variant]”, for which the figures for the self-aminoacylation in the series on biotinyl-Trp-oxazolone and in the series on biotinyl-Phe-oxazolone were 5.96 and 3.75, respectively.

On to “CCACACUUCAAGUAAUCGGUC [Fam1B.1 aminoacylation ribozyme variant]”, for which the self-aminoacylation with biotinyl-Trp-oxazolone amounted to 9.7; with biotinyl-Phe-oxazolone it was 16.4.

Take “CCACCCUUCAAUCAAUCGGUC [Fam1B.1 aminoacylation ribozyme variant]”: the self-aminoacylation came out at 20.9 with biotinyl-Trp-oxazolone and 28.6 in the series with biotinyl-Phe-oxazolone.

Consider “CCACGCCUCAAGCAAUCGGUC [Fam1B.1 aminoacylation ribozyme variant]”, for which the self-aminoacylation with biotinyl-Trp-oxazolone turned out to be 6.73; in the series on biotinyl-Phe-oxazolone it was 10.4.

As for “CCACUCUUCAAGGAAUCGGUC [Fam1B.1 aminoacylation ribozyme variant]”, the values for the self-aminoacylation with biotinyl-Trp-oxazolone and with biotinyl-Phe-oxazolone were 3.24 and 3, respectively.

Take “CCACUUCAAAAAAUCGGUCUG [Fam1A.1 aminoacylation ribozyme variant]”: the values for the self-aminoacylation in the series on biotinyl-Trp-oxazolone and in the series on biotinyl-Phe-oxazolone were 12.1 and 15.2, respectively.

Regarding “CCACUUCAAACAUUCGGUCUG [Fam1A.1 aminoacylation ribozyme variant]”, the results for the self-aminoacylation with biotinyl-Trp-oxazolone and with biotinyl-Phe-oxazolone were 2.73 and 5.58, respectively.

On to “CCACUUCAAACGAUCGGUCUG [Fam1A.1 aminoacylation ribozyme variant]”, for which the self-aminoacylation with biotinyl-Trp-oxazolone came out at 2.62; with biotinyl-Phe-oxazolone, 3.03.

Regarding “CCACUUCAAAUAAUCGGUCUG [Fam1A.1 aminoacylation ribozyme variant]”, the self-aminoacylation came to 15.2 in the series on biotinyl-Trp-oxazolone and 17.9 in the series on biotinyl-Phe-oxazolone.

With “CCAGACUUCAAGGAAUCGGUC [Fam1B.1 aminoacylation ribozyme variant]”, the figures for the self-aminoacylation in the series on biotinyl-Trp-oxazolone and with biotinyl-Phe-oxazolone were 5.9 and 6.35, respectively.

With “CCAUACUUCAAACAAUCGGUC [Fam1B.1 aminoacylation ribozyme variant]”, the self-aminoacylation in the series on biotinyl-Trp-oxazolone is 30.3; in the series with biotinyl-Phe-oxazolone it was 66.4.

With “CCCCACUUAAAGCAAUCGGUC [Fam1B.1 aminoacylation ribozyme variant]”, the figures for the self-aminoacylation with biotinyl-Trp-oxazolone and with biotinyl-Phe-oxazolone were 2.05 and 2.09, respectively.

Consider “CCCCACUUCUAGCAAUCGGUC [Fam1B.1 aminoacylation ribozyme variant]”, for which the self-aminoacylation worked out at 2.23 in the series on biotinyl-Trp-oxazolone and 2.55 with biotinyl-Phe-oxazolone.

For “CCCCACUUUAAGCAAUCGGUC [Fam1B.1 aminoacylation ribozyme variant]”, the figures for the self-aminoacylation with biotinyl-Trp-oxazolone and with biotinyl-Phe-oxazolone were 2.1 and 2.4, respectively.

With “CCGCACUUCAAGCAAUCGGUA [Fam1B.1 aminoacylation ribozyme variant]”, the self-aminoacylation with biotinyl-Trp-oxazolone amounted to 2.16.

Regarding “CCUCUCUUCAAGCAAUCGGUC [Fam1B.1 aminoacylation ribozyme variant]”, the self-aminoacylation in the series on biotinyl-Trp-oxazolone amounted to 20; in the series with biotinyl-Phe-oxazolone, 36.3.

For “CGACCCUUCAAGCAAUCGGUC [Fam1B.1 aminoacylation ribozyme variant]”, the self-aminoacylation in the series on biotinyl-Trp-oxazolone is 3.13; with biotinyl-Phe-oxazolone, 3.2.

On to “CUACUUCAAACAAUCGGCCCG [Fam1A.1 aminoacylation ribozyme variant]”, for which, in the series with biotinyl-Phe-oxazolone, the self-aminoacylation was 3.03.

In the case of “CUACUUCAAACAAUCGGCCUU [Fam1A.1 aminoacylation ribozyme variant]”, in the series with biotinyl-Phe-oxazolone, the self-aminoacylation was 2.48.

Consider “CUAUUUCAACCAAUCGGUCUG [Fam1A.1 aminoacylation ribozyme variant]”, for which the self-aminoacylation in the series on biotinyl-Phe-oxazolone came out at 2.27.

As for “CUCCAUCAAACAAUCGGUCUG [Fam1A.1 aminoacylation ribozyme variant]”, the self-aminoacylation in the series with biotinyl-Phe-oxazolone is 2.14.

Consider “CUCCUUCAAACACUCGGUCUG [Fam1A.1 aminoacylation ribozyme variant]”, for which the self-aminoacylation in the series with biotinyl-Phe-oxazolone amounted to 6.18.

As to “CUUCACCUAGGUCAUCGGGAG [Fam2.2 aminoacylation ribozyme variant]”, in the series with biotinyl-Trp-oxazolone, the self-aminoacylation turned out to be 2.1.

For the sequence “GAGUUUGCUAAUAGCCGCAAG [Fam3.1 aminoacylation ribozyme variant]”, the self-aminoacylation in the series on biotinyl-Phe-oxazolone was 4.21.

In the case of “GAGUUUGCUAAUAGUCGCACG [Fam3.1 aminoacylation ribozyme variant]”, in the series with biotinyl-Phe-oxazolone, the self-aminoacylation stood at 3.

For “GAGUUUGCUAAUCGUCGCAAG [Fam3.1 aminoacylation ribozyme variant]”, in the series on biotinyl-Phe-oxazolone, the self-aminoacylation turned out to be 2.55.

Take “GAGUUUGUUAAUAGUCGCAAG [Fam3.1 aminoacylation ribozyme variant]”: the self-aminoacylation in the series on biotinyl-Phe-oxazolone came to 2.36.

With “GUACAUCAAACAAUCGGUCUG [Fam1A.1 aminoacylation ribozyme variant]”, in the series on biotinyl-Phe-oxazolone, the self-aminoacylation turned out to be 2.

“GUACCUCAAACAAUCGGUCUG [Fam1A.1 aminoacylation ribozyme variant]”: in the series on biotinyl-Phe-oxazolone, the self-aminoacylation was found to be 2.42.

For the sequence “GUUCACCUAGGUCAUCGGGAG [Fam2.2 aminoacylation ribozyme variant]”, in the series on biotinyl-Trp-oxazolone, the self-aminoacylation amounted to 2.13.

On to “UCGUUUGCUAAUAGUCGCAAG [Fam3.1 aminoacylation ribozyme variant]”, for which, in the series on biotinyl-Phe-oxazolone, the self-aminoacylation came to 4.06.

(Values after the supplement of paper PMC9233669.)
